Assay results: article PMC3268518 (Molecular Cell, 2011)
Each block holds one binder with its values, some of them ahead of it.

Key:
[1] = target: T1, co-purified GST-eIF4G1/eIF4E complex (yeast, UniProt P39935 1-952; P07260 1-213); assay: pull-down
T1 sequence (looked up) 1: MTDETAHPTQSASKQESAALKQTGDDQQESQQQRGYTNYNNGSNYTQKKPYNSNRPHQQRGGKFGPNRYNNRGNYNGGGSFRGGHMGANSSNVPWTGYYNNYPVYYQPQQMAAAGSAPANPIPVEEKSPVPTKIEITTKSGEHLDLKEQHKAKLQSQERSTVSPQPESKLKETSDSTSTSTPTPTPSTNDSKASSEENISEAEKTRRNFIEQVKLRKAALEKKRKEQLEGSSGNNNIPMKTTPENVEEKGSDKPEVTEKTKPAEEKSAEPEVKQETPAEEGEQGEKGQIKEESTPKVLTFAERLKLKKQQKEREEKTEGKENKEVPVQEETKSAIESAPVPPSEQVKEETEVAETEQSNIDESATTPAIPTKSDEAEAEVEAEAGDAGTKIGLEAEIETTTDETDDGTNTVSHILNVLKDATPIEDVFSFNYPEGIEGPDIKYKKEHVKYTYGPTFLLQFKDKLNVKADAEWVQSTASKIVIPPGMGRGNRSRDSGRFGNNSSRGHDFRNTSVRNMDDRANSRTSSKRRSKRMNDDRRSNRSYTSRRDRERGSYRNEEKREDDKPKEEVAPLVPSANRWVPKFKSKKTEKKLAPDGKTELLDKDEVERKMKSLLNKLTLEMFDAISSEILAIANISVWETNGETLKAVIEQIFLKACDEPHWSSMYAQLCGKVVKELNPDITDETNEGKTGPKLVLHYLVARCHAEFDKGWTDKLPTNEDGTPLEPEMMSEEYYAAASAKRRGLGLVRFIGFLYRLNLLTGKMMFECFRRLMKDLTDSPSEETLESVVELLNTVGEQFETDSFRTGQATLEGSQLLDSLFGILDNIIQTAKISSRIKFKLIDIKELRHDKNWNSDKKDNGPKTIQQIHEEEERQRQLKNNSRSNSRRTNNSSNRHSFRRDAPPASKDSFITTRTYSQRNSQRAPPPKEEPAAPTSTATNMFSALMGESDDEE
T1 sequence (looked up) 2: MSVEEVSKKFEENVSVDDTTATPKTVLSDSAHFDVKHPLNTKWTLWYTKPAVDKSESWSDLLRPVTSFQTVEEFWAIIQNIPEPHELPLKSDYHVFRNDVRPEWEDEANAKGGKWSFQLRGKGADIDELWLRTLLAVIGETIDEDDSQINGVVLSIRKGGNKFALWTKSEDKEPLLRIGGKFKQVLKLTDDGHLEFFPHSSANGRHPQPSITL

[2] = target: recombinant wild type Ded1 (yeast, UniProt P06634 1-604); assay: pull-down

binding result [1]: binds
B1: rded1Δ21-27 (enzyme, yeast, UniProt P06634 1-604, looked up)
chain: MAELSEQVQNLSINDNNENGGKPRSARNNSSNYNNNNGGYNGGRGGGSFFSNNRRGGYGNGGFFGGNNGGSRSNGRSGGRWIDGKHVPAPRNEKAEIAIFGVPEDPNFQSSGINFDNYDDIPVDASGKDVPEPITEFTSPPLDGLLLENIKLARFTKPTPVQKYSVPIVANGRDLMACAQTGSGKTGGFLFPVLSESFKTGPSPQPESQGSFYQRKAYPTAVIMAPTRELATQIFDEAKKFTYRSWVKACVVYGGSPIGNQLREIERGCDLLVATPGRLNDLLERGKISLANVKYLVLDEADRMLDMGFEPQIRHIVEDCDMTPVGERQTLMFSATFPADIQHLARDFLSDYIFLSVGRVGSTSENITQKVLYVENQDKKSALLDLLSASTDGLTLIFVETKRMADQLTDFLIMQNFRATAIHGDRTQSERERALAAFRSGAATLLVATAVAARGLDIPNVTHVINYDLPSDVDDYVHRIGRTGRAGNTGLATAFFNSENSNIVKGLHEILTEANQEVPSFLKDAMMSAPGSRSNSRRGGFGRNNNRDYRKAGGASAGGWGSSRSRDNSFRGGSGWGSDSKSSGWGNSGGSNNSSWW

binding result [2]: binds
B2: GST-eIF4G1 fragment eIF4G 883-952 (domain or fragment, yeast, UniProt P39935 883-952, looked up)
chain: SNSRRTNNSSNRHSFRRDAPPASKDSFITTRTYSQRNSQRAPPPKEEPAAPTSTATNMFSALMGESDDEE
